Data on 18 variants can be found in the RNAGym collection of RNA variant scans (doi:10.1021/acssynbio.7b00057).

First the molecules themselves.
B1: Pistol ribozyme (parent)
chain: GGGUCGUUGUUCCAUAAUCGCGUGGAUAUGGCACGCAAGUUUCUACCGGGCACCGUAAAUGUCCGACUGGAGCCGUUCGGGCGGCUAUAAACAGACCUCAGGCCCGAAGCGUGGCGGCACCUGCCGCCGGUGGUAAAAAAGAUCGGAAGAGCACACGUCU

The variants in the data set derive from B1. Briefly: aptazyme ON/OFF ratio, guanine; higher = stronger switching; co-transcriptional cleavage with and without guanine.
As to GGGUCGAGUGUUUAUAAUCGCGUGGAUAUGGCACGCAAGUUUCUACCGGGCACCGUAAAUGUCCGACUGGAGCCGUUCGGGCGGCUAUAAACAGACCUCAGGCCCGAAGCGUGGCGGCACCUGCCGCCGGUGGUAAAAAAGAUCGGAAGAGCACACGUCU, the “aptazyme ON/OFF ratio” value was determined as 1.21. Turning to GGGUCGAGUGUUGAUAAUCGCGUGGAUAUGGCACGCAAGUUUCUACCGGGCACCGUAAAUGUCCGACUGGAGCCGUUCGGGCGGCUAUAAACAGACCUCAGGCCCGAAGCGUGGCGGCACCUGCCGCCGGUGGUAAAAAAGAUCGGAAGAGCACACGUCU, the “aptazyme ON/OFF ratio” value was determined as 1.24. For GGGUCGAGUGACCAUAAUCGCGUGGAUAUGGCACGCAAGUUUCUACCGGGCACCGUAAAUGUCCGACUGGAGCCGUUCGGGCGGCUAUAAACAGACCUCAGGCCCGAAGCGUGGCGGCACCUGCCGCCGGUGGUAAAAAAGAUCGGAAGAGCACACGUCU, the “aptazyme ON/OFF ratio” value was found to be 1.16. The figure for GGGUCGAGUGAUGAUAAUCGCGUGGAUAUGGCACGCAAGUUUCUACCGGGCACCGUAAAUGUCCGACUGGAGCCGUUCGGGCGGCUAUAAACAGACCUCAGGCCCGAAGCGUGGCGGCACCUGCCGCCGGUGGUAAAAAAGAUCGGAAGAGCACACGUCU is 1.18; for GGGUCGAGUGAUUAUAAUCGCGUGGAUAUGGCACGCAAGUUUCUACCGGGCACCGUAAAUGUCCGACUGGAGCCGUUCGGGCGGCUAUAAACAGACCUCAGGCCCGAAGCGUGGCGGCACCUGCCGCCGGUGGUAAAAAAGAUCGGAAGAGCACACGUCU it is 1.42; for GGGUCGAGUGAUAAUAAUCGCGUGGAUAUGGCACGCAAGUUUCUACCGGGCACCGUAAAUGUCCGACUGGAGCCGUUCGGGCGGCUAUAAACAGACCUCAGGCCCGAAGCGUGGCGGCACCUGCCGCCGGUGGUAAAAAAGAUCGGAAGAGCACACGUCU it is 1.64.

Take GGGUCGAGUGAAUAUAAUCGCGUGGAUAUGGCACGCAAGUUUCUACCGGGCACCGUAAAUGUCCGACUGGAGCCGUUCGGGCGGCUAUAAACAGACCUCAGGCCCGAAGCGUGGCGGCACCUGCCGCCGGUGGUAAAAAAGAUCGGAAGAGCACACGUCU: the “aptazyme ON/OFF ratio” value is 1.48.

For the variant GGGUCGAGUGAAGAUAAUCGCGUGGAUAUGGCACGCAAGUUUCUACCGGGCACCGUAAAUGUCCGACUGGAGCCGUUCGGGCGGCUAUAAACAGACCUCAGGCCCGAAGCGUGGCGGCACCUGCCGCCGGUGGUAAAAAAGAUCGGAAGAGCACACGUCU, the “aptazyme ON/OFF ratio” value was found to be 1.39. As for GGGUCGAGUGAAAAUAAUCGCGUGGAUAUGGCACGCAAGUUUCUACCGGGCACCGUAAAUGUCCGACUGGAGCCGUUCGGGCGGCUAUAAACAGACCUCAGGCCCGAAGCGUGGCGGCACCUGCCGCCGGUGGUAAAAAAGAUCGGAAGAGCACACGUCU, the “aptazyme ON/OFF ratio” value came to 1.16. As for GGGUCGAGUGAGUAUAAUCGCGUGGAUAUGGCACGCAAGUUUCUACCGGGCACCGUAAAUGUCCGACUGGAGCCGUUCGGGCGGCUAUAAACAGACCUCAGGCCCGAAGCGUGGCGGCACCUGCCGCCGGUGGUAAAAAAGAUCGGAAGAGCACACGUCU, the “aptazyme ON/OFF ratio” value was determined as 1.02. For GGGUCGAGUGAGGAUAAUCGCGUGGAUAUGGCACGCAAGUUUCUACCGGGCACCGUAAAUGUCCGACUGGAGCCGUUCGGGCGGCUAUAAACAGACCUCAGGCCCGAAGCGUGGCGGCACCUGCCGCCGGUGGUAAAAAAGAUCGGAAGAGCACACGUCU, the “aptazyme ON/OFF ratio” value amounted to 1.38. Turning to GGGUCGAGUGAGAAUAAUCGCGUGGAUAUGGCACGCAAGUUUCUACCGGGCACCGUAAAUGUCCGACUGGAGCCGUUCGGGCGGCUAUAAACAGACCUCAGGCCCGAAGCGUGGCGGCACCUGCCGCCGGUGGUAAAAAAGAUCGGAAGAGCACACGUCU, the “aptazyme ON/OFF ratio” value was 1.13. As for GGGUCGAGUGAGCAUAAUCGCGUGGAUAUGGCACGCAAGUUUCUACCGGGCACCGUAAAUGUCCGACUGGAGCCGUUCGGGCGGCUAUAAACAGACCUCAGGCCCGAAGCGUGGCGGCACCUGCCGCCGGUGGUAAAAAAGAUCGGAAGAGCACACGUCU, the “aptazyme ON/OFF ratio” value is 1.46. In the case of GGGUCGAGUGAACAUAAUCGCGUGGAUAUGGCACGCAAGUUUCUACCGGGCACCGUAAAUGUCCGACUGGAGCCGUUCGGGCGGCUAUAAACAGACCUCAGGCCCGAAGCGUGGCGGCACCUGCCGCCGGUGGUAAAAAAGAUCGGAAGAGCACACGUCU, the “aptazyme ON/OFF ratio” value is 1.74.

Take GGGUCGAGUGAUCAUAAUCGCGUGGAUAUGGCACGCAAGUUUCUACCGGGCACCGUAAAUGUCCGACUGGAGCCGUUCGGGCGGCUAUAAACAGACCUCAGGCCCGAAGCGUGGCGGCACCUGCCGCCGGUGGUAAAAAAGAUCGGAAGAGCACACGUCU: the “aptazyme ON/OFF ratio” value turned out to be 1.27. As for GGGUCGAGUGUCUAUAAUCGCGUGGAUAUGGCACGCAAGUUUCUACCGGGCACCGUAAAUGUCCGACUGGAGCCGUUCGGGCGGCUAUAAACAGACCUCAGGCCCGAAGCGUGGCGGCACCUGCCGCCGGUGGUAAAAAAGAUCGGAAGAGCACACGUCU, the “aptazyme ON/OFF ratio” value is 1.23. The figure for GGGUCGAGUGUCGAUAAUCGCGUGGAUAUGGCACGCAAGUUUCUACCGGGCACCGUAAAUGUCCGACUGGAGCCGUUCGGGCGGCUAUAAACAGACCUCAGGCCCGAAGCGUGGCGGCACCUGCCGCCGGUGGUAAAAAAGAUCGGAAGAGCACACGUCU is 1.32. On to GGGUCGAGUGUCAAUAAUCGCGUGGAUAUGGCACGCAAGUUUCUACCGGGCACCGUAAAUGUCCGACUGGAGCCGUUCGGGCGGCUAUAAACAGACCUCAGGCCCGAAGCGUGGCGGCACCUGCCGCCGGUGGUAAAAAAGAUCGGAAGAGCACACGUCU, for which the “aptazyme ON/OFF ratio” value was 1.3.
